Results as given in patent US20040018971A1 (published 2004).
Where no end group is shown, it is not given here. [ ]: non-standard residue; d: D form. Abu = CC[C@H](N)C(=O)O

Assays:
[1] = target: T1, HLA-A*0101 (human); assay: competition with 125I-labelled probe peptide for purified HLA-A*0101, gel filtration
T1 construct: also called HLA-A1

[2] = target: HLA-B*5301 (human); assay: competition with 125I probe peptide, purified HLA
[3] = target: HLA-B*0702 (human); assay: competition with 125I probe peptide, purified HLA
[4] = target: HLA-B*5101 (human); assay: competition with 125I probe peptide, purified HLA
[5] = target: T2, HLA-A*0101 (human); assay: competition with 125I-labelled probe peptide for purified HLA-A*0101, gel filtration; ratio = IC50 of standard peptide 944.02 / IC50 of test peptide
T2 construct: also called HLA-A1

[6] = target: T3, HLA-A*0201 (human); assay: competition with 125I-labelled probe peptide for purified HLA-A*0201, gel filtration
T3 construct: Purified HLA class I molecule (MHC, no peptide specified); also called HLA-A2.1

[7] = target: HLA-A*1101 (human); assay: inhibition of 125I probe peptide binding to purified HLA
[8] = target: HLA-A*6801 (human); assay: as above
[9] = target: HLA-A*3101 (human); assay: as above
[10] = target: HLA-A*0301 (human); assay: as above
[11] = target: T4, HLA-A*0201 (purified HLA class I molecule) (human); assay: competition with 125I-labelled standard peptide for purified HLA, gel filtration
T4 construct: also called HLA-A2.1

[12] = target: T5, HLA-A*0301 (human); assay: competition with 125I-labelled probe peptide on purified HLA-A*0301, gel filtration; ratio to standard peptide 941.12
T5 construct: Purified HLA molecule, 5 to 500 nM in the assay; also called HLA-A3

B1: HER2/neu peptide, position 914, 10 amino acids (peptide)
peptide: ELMTFGAKPY
relative binding ratio [1]: 0.0082 ratio (IC50 of standard peptide / IC50 of test peptide)

B2: HER2/neu peptide, position 1213, 9 amino acids (peptide)
peptide: FSPAFDNLY
relative binding ratio [1]: 0.043 ratio (IC50 of standard peptide / IC50 of test peptide)

B3: Her2/neu.600.I11 (peptide)
peptide: CPSGVKPDLSI
notes: analog peptide
IC50 [2]: 344 nM
IC50 [3]: 290 nM
IC50 [4]: 138 nM

B4: HER2/neu peptide, position 997, 9 amino acids (peptide)
peptide: ASPLDSTFY
relative binding ratio [5]: 0.029 ratio

B5: HER2/neu peptide, position 822, 9 amino acids (peptide)
peptide: LLNWCMQIA
notes: Synthetic peptide
relative binding ratio [6]: 0.0046 ratio (IC50 of standard peptide / IC50 of test peptide)

B6: HER2/neu peptide, position 747, 9 amino acids (peptide)
peptide: KIPVAIKVL
notes: Synthetic peptide
relative binding ratio [6]: 0.0002 ratio (IC50 of standard peptide / IC50 of test peptide)

B7: HER2/neu peptide, position 281, 9 amino acids (peptide)
peptide: SMPNPEGRY
relative binding ratio [1]: 0.0028 ratio (IC50 of standard peptide / IC50 of test peptide)

B8: HER2/neu peptide, position 3, 10 amino acids (peptide)
peptide: LAALCRWGLL
notes: Synthetic peptide
relative binding ratio [6]: 0.0022 ratio (IC50 of standard peptide / IC50 of test peptide)

B9: HER2/neu peptide, position 293, 9 amino acids (peptide)
peptide: ASCVTACPY
notes: Synthetic peptide; also called Her2/neu.293
relative binding ratio [5]: 0.055 ratio

B10: HER2/neu peptide, position 154, 10 amino acids (peptide)
peptide: LIQRNPQLCY
relative binding ratio [5]: 0.03 ratio

B11: HER2/neu peptide, position 546, 9 amino acids (peptide)
peptide: VLQGLPREY
relative binding ratio [5]: 0.005 ratio

B12: HER2/neu peptide, position 401, 9 amino acids (peptide)
peptide: ETLEEITGY
relative binding ratio [5]: 0.043 ratio

B13: HER2/neu peptide, position 11, 10 amino acids (peptide)
peptide: LLLALLPPGA
notes: Synthetic peptide
relative binding ratio [6]: 0.0054 ratio (IC50 of standard peptide / IC50 of test peptide)

B14: Her2/neu.148.V2 (peptide)
peptide: IVKGGVLIQR
notes: synthetic analog peptide
IC50 [7]: 7500 nM
IC50 [8]: 29 nM
IC50 [9]: 72 nM
IC50 [10]: 275 nM

B15: HER2/neu peptide, position 916, 8 amino acids (peptide)
peptide: MTFGAKPY
relative binding ratio [5]: -0.0021 ratio

B16: HER2/neu peptide, position 114, 10 amino acids (peptide)
peptide: LAVLDNGDPL
notes: Synthetic peptide
relative binding ratio [6]: 0.0002 ratio (IC50 of standard peptide / IC50 of test peptide)

B17: HER2/neu peptide, position 868, 10 amino acids (peptide)
peptide: RLLDIDETEY
relative binding ratio [1]: 1.3 ratio (IC50 of standard peptide / IC50 of test peptide)

B18: HER2/neu peptide, position 190, 9 amino acids (peptide)
peptide: RACHPCSPM
notes: Synthetic peptide
relative binding ratio (IC50 of standard peptide / IC50 of test peptide) [11]: 0.0001 ratio

B19: HER2/neu peptide, position 295, 9 amino acids (peptide)
peptide: CVTACPYNY
relative binding ratio [1]: 0.0042 ratio (IC50 of standard peptide / IC50 of test peptide)

B20: HER2/neu peptide, position 1241, 8 amino acids (peptide)
peptide: PTAENPEY
relative binding ratio [5]: 0.003 ratio

B21: Her2/neu.218.B3B7K9 (peptide)
peptide: TVBAGGBAK
modifications: B at positions 3 and 7 = alpha-amino butyric acid (in place of cysteine)
notes: synthetic analog peptide; also called TVBAGGBAK
IC50 [7]: 29 nM
IC50 [8]: 7.3 nM
IC50 [10]: 24 nM

B22: HER2/neu peptide, position 727, 9 amino acids (peptide)
peptide: GSGAFGTVY
relative binding ratio [1]: 0.0011 ratio (IC50 of standard peptide / IC50 of test peptide)

B23: HER2/neu peptide, position 402, 10 amino acids (peptide)
peptide: TLEEITGYLY
notes: also called Her2/neu.402
relative binding ratio [1]: 1.1 ratio (IC50 of standard peptide / IC50 of test peptide)

B24: HER2/neu peptide, position 714, 10 amino acids (peptide)
peptide: ILKETELRKV
notes: Synthetic peptide
relative binding ratio [6]: 0.0001 ratio (IC50 of standard peptide / IC50 of test peptide)

B25: Her2/neu.218 (peptide)
peptide: TVCAGGCAR
notes: synthetic peptide
IC50 [7]: 261 nM
IC50 [8]: 83 nM

B26: HER2/neu peptide, position 860, 10 amino acids (peptide)
peptide: KITDFGLARL
notes: Synthetic peptide
relative binding ratio [6]: 0.002 ratio (IC50 of standard peptide / IC50 of test peptide)

B27: Her2/neu.450.V2K10 (peptide)
peptide: IVWLGLRSLK
notes: synthetic analog peptide
IC50 [7]: 128 nM
IC50 [8]: 12 nM
IC50 [10]: 3.9 nM

B28: HER2/neu peptide, position 293, 9 amino acids (peptide)
peptide: ASCVTACPY
notes: also called Her2/neu.293
relative binding ratio [1]: 0.055 ratio (IC50 of standard peptide / IC50 of test peptide)

B29: HER2/neu peptide, position 154, 10 amino acids (peptide)
peptide: LIQRNPQLCY
relative binding ratio [1]: 0.03 ratio (IC50 of standard peptide / IC50 of test peptide)

B30: HER2/neu peptide, position 296, 8 amino acids (peptide)
peptide: VTACPYNY
notes: Synthetic peptide; also called Her2/neu.296
relative binding ratio [5]: 0.1 ratio

B31: HER2/neu peptide, position 93, 10 amino acids (peptide)
peptide: QVPLQRLRIV
notes: Synthetic peptide
relative binding ratio (IC50 of standard peptide / IC50 of test peptide) [11]: 0.0001 ratio

B32: HER2/neu peptide, position 12, 10 amino acids (peptide)
peptide: LLALLPPGAA
notes: Synthetic peptide
relative binding ratio [6]: 0.0006 ratio (IC50 of standard peptide / IC50 of test peptide)

B33: HER2/neu peptide, position 785, 10 amino acids (peptide)
peptide: LLGICLTSTV
notes: Synthetic peptide
relative binding ratio [6]: 0.049 ratio (IC50 of standard peptide / IC50 of test peptide)

B34: HER2/neu peptide, position 85, 10 amino acids (peptide)
peptide: LIAHNQVRQV
notes: Synthetic peptide
relative binding ratio [6]: 0.0001 ratio (IC50 of standard peptide / IC50 of test peptide)

B35: HER2/neu peptide, position 1119, 9 amino acids (peptide)
peptide: PLPSETDGY
relative binding ratio [5]: 0.0017 ratio

B36: HER2/neu peptide, position 727, 9 amino acids (peptide)
peptide: GSGAFGTVY
relative binding ratio [5]: 0.0011 ratio

B37: HER2/neu peptide, position 12, 9 amino acids (peptide)
peptide: LLALLPPGA
notes: Synthetic peptide
relative binding ratio [6]: 0.0008 ratio (IC50 of standard peptide / IC50 of test peptide)

B38: HER2/neu peptide, position 54, 9 amino acids (peptide)
peptide: QVVQGNLEL
notes: Synthetic peptide; also called HER2/neu 54-62
relative binding ratio (IC50 of standard peptide / IC50 of test peptide) [11]: 0.0001 ratio

B39: HER2/neu peptide, position 281, 9 amino acids (peptide)
peptide: SMPNPEGRY
relative binding ratio [5]: 0.0028 ratio

B40: HER2/neu peptide, position 265, 10 amino acids (peptide)
peptide: ELHCPALVTY
relative binding ratio [1]: 0.0015 ratio (IC50 of standard peptide / IC50 of test peptide)

B41: HER2/neu peptide, position 1130, 10 amino acids (peptide)
peptide: PLTCSPQPEY
relative binding ratio [1]: 0.0072 ratio (IC50 of standard peptide / IC50 of test peptide)

B42: HER2/neu peptide, position 997, 9 amino acids (peptide)
peptide: ASPLDSTFY
relative binding ratio [1]: 0.029 ratio (IC50 of standard peptide / IC50 of test peptide)

B43: HER2/neu peptide, position 828, 8 amino acids (peptide)
peptide: QIAKGMSY
relative binding ratio [5]: -0.0021 ratio

B44: HER2/neu peptide, position 1119, 9 amino acids (peptide)
peptide: PLPSETDGY
relative binding ratio [1]: 0.0017 ratio (IC50 of standard peptide / IC50 of test peptide)

B45: HER2/neu peptide, position 1008, 10 amino acids (peptide)
peptide: LLEDDDMGDL
notes: Synthetic peptide
relative binding ratio [6]: 0.0001 ratio (IC50 of standard peptide / IC50 of test peptide)

B46: HER2/neu peptide, position 915, 9 amino acids (peptide)
peptide: LMTFGAKPY
relative binding ratio [5]: 0.0011 ratio

B47: HER2/neu peptide, position 883, 9 amino acids (peptide)
peptide: KVPIKWMAL
notes: Synthetic peptide; also called KVPIKWMAL
relative binding ratio [6]: 0.0002 ratio (IC50 of standard peptide / IC50 of test peptide)

B48: HER2/neu peptide, position 772, 10 amino acids (peptide)
peptide: YVMAGVGSPY
relative binding ratio [1]: 1.1 ratio (IC50 of standard peptide / IC50 of test peptide)

B49: HER2/neu peptide, position 662, 9 amino acids (peptide)
peptide: LLVVVLGVV
notes: Synthetic peptide
relative binding ratio [6]: 0.0001 ratio (IC50 of standard peptide / IC50 of test peptide)

B50: HER2/neu peptide, position 479, 9 amino acids (peptide)
peptide: TVPWDQLFR
relative binding ratio (IC50 of standard peptide / IC50 of test peptide) [12]: 0.0006 relative binding ratio

B51: HER2/neu peptide, position 55, 10 amino acids (peptide)
peptide: VVQGNLELTY
relative binding ratio [1]: 0.018 ratio (IC50 of standard peptide / IC50 of test peptide)

B52: HER2/neu peptide, position 15, 9 amino acids (peptide)
peptide: LLPPGAAST
notes: Synthetic peptide
relative binding ratio [6]: 0.0007 ratio (IC50 of standard peptide / IC50 of test peptide)

B53: HER2/neu peptide, position 681, 10 amino acids (peptide)
peptide: KIRKYTMRRL
notes: Synthetic peptide
relative binding ratio [6]: 0.0001 ratio (IC50 of standard peptide / IC50 of test peptide)

B54: HER2/neu peptide, position 402, 8 amino acids (peptide)
peptide: TLEEITGY
relative binding ratio [5]: -0.0021 ratio

B55: HER2/neu peptide, position 24, 10 amino acids (peptide)
peptide: QVCTGTDMKL
notes: Synthetic peptide; also called HER2/neu 24-33
relative binding ratio (IC50 of standard peptide / IC50 of test peptide) [11]: 0.0001 ratio

B56: HER2/neu peptide, position 295, 9 amino acids (peptide)
peptide: CVTACPYNY
relative binding ratio [5]: 0.0042 ratio

B57: HER2/neu peptide, position 90, 10 amino acids (peptide)
peptide: QVRQVPLQRL
notes: Synthetic peptide; also called HER2/neu 90-99
relative binding ratio (IC50 of standard peptide / IC50 of test peptide) [11]: 0.0001 ratio

B58: HER2/neu peptide, position 1213, 9 amino acids (peptide)
peptide: FSPAFDNLY
relative binding ratio [5]: 0.043 ratio

B59: HER2/neu peptide, position 661, 9 amino acids (peptide)
peptide: ILLVVVLGV
notes: Synthetic peptide
relative binding ratio [6]: 0.002 ratio (IC50 of standard peptide / IC50 of test peptide)

B60: HER2/neu peptide, position 597, 9 amino acids (peptide)
peptide: VARCPSGVK
relative binding ratio (IC50 of standard peptide / IC50 of test peptide) [12]: 0.01 relative binding ratio

B61: HER2/neu peptide, position 545, 10 amino acids (peptide)
peptide: RVLQGLPREY
relative binding ratio [1]: 0.0015 ratio (IC50 of standard peptide / IC50 of test peptide)

B62: HER2/neu peptide, position 265, 10 amino acids (peptide)
peptide: ELHCPALVTY
relative binding ratio [5]: 0.0015 ratio

B63: HER2/neu peptide, position 915, 9 amino acids (peptide)
peptide: LMTFGAKPY
relative binding ratio [1]: 0.0011 ratio (IC50 of standard peptide / IC50 of test peptide)
